For assay [1], the target named is T1, human PDGF alpha-receptor (human, UniProt P16234 24-1089).
T1 construct: whole, on cells; also called PDGF receptor alpha; PDGFR-alpha
Description: self-displacement standard curve, unlabeled PDGF-BB against 125I-PDGF-BB on PAE-1 cells expressing PDGF alpha-receptor. On the procedure:
(§1) Next, full length and truncated PDGF-C were tested for their capacity to bind to human PDGF receptors alpha and beta by analyzing their abilities to compete with PDGF-BB for binding to PDGF receptors. The binding experiments were performed on porcine aortic endothelial-1 (PAE-1) cells stably expressing the human PDGF receptors alpha and beta (Eriksson et al., EMBO J, 1992, 11, 543-550). Binding experiments were performed essentially as in Heldin et al. (EMBO J, 1988, 7:1387-1393). Different concentrations of human full-length and truncated PDGF-C, or human PDGF-BB were mixed with 5 ng/ml of ¹²⁵I-PDGF-BB in binding buffer (PBS containing 1 mg/ml of bovine serum albumin). Aliquots were incubated with the receptor expressing PAE-1 cells plated in 24-well culture dishes on ice for 90 minutes. After three washes with binding buffer, cell-bound ¹²⁵I -PDGF-BB was extracted by lysis of cells in 20 mM Tris-HCl, pH 7.5, 10% glycerol, 1% Triton X-100. The amount of cell bound radioactivity was determined in a gamma-counter. A standard curve for the binding of ¹²⁵I-labeled PDGF BB homodimers to PAE-1 cells expressing PDGF alpha-receptor is shown in FIG. 18. An increasing excess of the unlabeled protein added to the incubations competed efficiently with cell association of the radiolabeled tracer.

In assay [2] the target is T1, human PDGF alpha-receptor. Nature of the assay: competition with 125I-PDGF-BB on PAE-1 cells expressing human PDGF alpha-receptor. On the procedure: as §1
Another assay addresses T2, human PDGF beta-receptor (human, UniProt P09619 33-1106).
T2 construct: whole, on cells; also called PDGF receptor beta; PDGFR-beta
Nature of the assay: direct binding of 125I-labeled truncated PDGF-C to PAE-1 cells expressing PDGF beta receptor. On the procedure: To assess the interactions between truncated PDGF-C and the PDGF alpha and beta receptors, truncated PDGF-C was tested for its capacity to bind to porcine aortic endothelial-1 (PAE-1) cells expressing PDGF alpha or beta receptors, respectively (Eriksson et al., EMBO J, 1992 11:543-550). The binding experiments were performed essentially as described in Heldin et al. (EMBO J, 1988 7:1387-1393). Five micrograms of truncated PDGF-C protein in ten microliters of sodium borate buffer was radiolabeled using the Bolton-Hunter reagent (Amersham) to a specific activity of 4×10⁵ cpm/ng. Different concentrations of radiolabeled truncated PDGF-C, with or without added unlabeled protein, in binding buffer (PBS containing 1 mg/ml of bovine serum albumin) was added to the receptor expressing PAE-1 cells plated in 24-well culture dishes on ice for 90 minutes. After three washes with binding buffer, cell-bound ¹²⁵I-labeled PDGF-C was extracted by lysis of cells in 20 mM Tris-HCl, pH 7.5, 10% glycerol, 1% Triton X-100. The amount of cell-bound radioactivity was determined in a gamma-counter. Non-specific binding was estimated by including a 100-fold molar excess of truncated PDGF-C in some experiments. […] The binding was specific as radiolabeled PDGF-C was quantitatively displaced by a 100-fold molar excess of unlabeled protein.

For a further assay, the target named is T3, VEGFR-2-Ig (human, UniProt P35968 20-764).
T3 construct: extracellular domain; Transiently expressed in 293 EBNA cells and captured on protein A-Sepharose; also called soluble Ig-fusion protein containing the extracellular domain of human VEGFR-2; not shown: Ig part of the fusion
Nature of the assay: pull-down of 35S-labelled conditioned medium with receptor-Ig on protein A-Sepharose, SDS-PAGE, phosphorimager. Here is the method: (§2) To assess the interactions between full length and truncated PDGF-C and the VEGF receptors, full length and truncated PDGF-C were tested for their capacity to bind to soluble Ig-fusion proteins containing the extracellular domains of human VEGFR-1, VEGFR-2 and VEGFR-3 (Olofsson et al., Proc. Natl. Acad. Sci. USA, 1998 95:11709-11714). The fusion proteins, designated VEGFR-1-Ig, VEGFR-2-Ig and VEGFR-3-Ig, were transiently expressed in human 293 EBNA cells. All Ig fusion proteins were human VEGFRs. Cells were incubated for 24 hours after transfection, washed with Dulbecco's Modified Eagle Medium (DMEM) containing 0.2% bovine serum albumin and starved for 24 hours. The fusion proteins were then precipitated from the clarified conditioned medium using protein A-Sepharose beads (Pharmacia). The beads were combined with 100 microliters of 10× binding buffer (5% bovine serum albumin, 0.2% Tween 20 and 10 μg/ml heparin) and 900 microliter of conditioned medium from 293 cells that had been transfected with mammalian expression plasmids encoding full length or truncated PDGF-C or control vector, then metabolically labeled with ³⁵S-cysteine and methionine (Promix, Amersham) for 4 to 6 hours. After 2.5 hours, at room temperature, the Sepharose beads were washed 3 times with binding buffer at 4° C., once with phosphate buffered saline and boiled in SDS-PAGE buffer. Labeled proteins that were bound to the Ig-fusion proteins were analyzed by SDS-PAGE under reducing conditions. Radiolabeled proteins were detected using a phosphorimager analyzer.

The target of the next assay is T4, VEGFR-3-Ig (human, UniProt P35916 25-775).
T4 construct: extracellular domain; Transiently expressed in 293 EBNA cells and captured on protein A-Sepharose; also called soluble Ig-fusion protein containing the extracellular domain of human VEGFR-3; not shown: Ig part of the fusion
T4 sequence (looked up): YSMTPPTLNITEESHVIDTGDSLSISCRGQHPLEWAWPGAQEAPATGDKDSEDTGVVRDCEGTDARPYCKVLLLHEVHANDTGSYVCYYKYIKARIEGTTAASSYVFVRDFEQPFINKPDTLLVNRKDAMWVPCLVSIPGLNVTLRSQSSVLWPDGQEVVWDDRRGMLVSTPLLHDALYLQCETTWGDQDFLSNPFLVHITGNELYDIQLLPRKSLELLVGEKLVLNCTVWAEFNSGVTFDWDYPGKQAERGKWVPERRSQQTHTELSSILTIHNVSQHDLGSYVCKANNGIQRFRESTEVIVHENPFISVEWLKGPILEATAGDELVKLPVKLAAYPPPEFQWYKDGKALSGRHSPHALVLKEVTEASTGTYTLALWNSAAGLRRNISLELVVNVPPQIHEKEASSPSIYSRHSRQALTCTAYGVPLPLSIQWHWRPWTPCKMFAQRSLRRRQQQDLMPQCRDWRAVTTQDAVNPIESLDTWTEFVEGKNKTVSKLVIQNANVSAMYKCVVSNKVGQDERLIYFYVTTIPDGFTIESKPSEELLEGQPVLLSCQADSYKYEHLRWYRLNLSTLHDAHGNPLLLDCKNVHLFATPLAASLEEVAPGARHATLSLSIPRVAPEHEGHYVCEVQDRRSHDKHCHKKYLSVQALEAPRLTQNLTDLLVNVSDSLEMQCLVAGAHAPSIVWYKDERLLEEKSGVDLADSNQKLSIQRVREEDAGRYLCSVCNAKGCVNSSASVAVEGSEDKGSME
The assay is described as above. Here is the method: as §2

The next assay has as its target T5, VEGFR-1-Ig (human, UniProt P17948 27-758).
T5 construct: extracellular domain; Transiently expressed in 293 EBNA cells and captured on protein A-Sepharose; The construct is cited from Olofsson et al. 1998; also called soluble Ig-fusion protein containing the extracellular domain of human VEGFR-1; not shown: Ig part of the fusion
The description is as above. Here is the method:
as §2

T1 sequence (P16234 24-1089): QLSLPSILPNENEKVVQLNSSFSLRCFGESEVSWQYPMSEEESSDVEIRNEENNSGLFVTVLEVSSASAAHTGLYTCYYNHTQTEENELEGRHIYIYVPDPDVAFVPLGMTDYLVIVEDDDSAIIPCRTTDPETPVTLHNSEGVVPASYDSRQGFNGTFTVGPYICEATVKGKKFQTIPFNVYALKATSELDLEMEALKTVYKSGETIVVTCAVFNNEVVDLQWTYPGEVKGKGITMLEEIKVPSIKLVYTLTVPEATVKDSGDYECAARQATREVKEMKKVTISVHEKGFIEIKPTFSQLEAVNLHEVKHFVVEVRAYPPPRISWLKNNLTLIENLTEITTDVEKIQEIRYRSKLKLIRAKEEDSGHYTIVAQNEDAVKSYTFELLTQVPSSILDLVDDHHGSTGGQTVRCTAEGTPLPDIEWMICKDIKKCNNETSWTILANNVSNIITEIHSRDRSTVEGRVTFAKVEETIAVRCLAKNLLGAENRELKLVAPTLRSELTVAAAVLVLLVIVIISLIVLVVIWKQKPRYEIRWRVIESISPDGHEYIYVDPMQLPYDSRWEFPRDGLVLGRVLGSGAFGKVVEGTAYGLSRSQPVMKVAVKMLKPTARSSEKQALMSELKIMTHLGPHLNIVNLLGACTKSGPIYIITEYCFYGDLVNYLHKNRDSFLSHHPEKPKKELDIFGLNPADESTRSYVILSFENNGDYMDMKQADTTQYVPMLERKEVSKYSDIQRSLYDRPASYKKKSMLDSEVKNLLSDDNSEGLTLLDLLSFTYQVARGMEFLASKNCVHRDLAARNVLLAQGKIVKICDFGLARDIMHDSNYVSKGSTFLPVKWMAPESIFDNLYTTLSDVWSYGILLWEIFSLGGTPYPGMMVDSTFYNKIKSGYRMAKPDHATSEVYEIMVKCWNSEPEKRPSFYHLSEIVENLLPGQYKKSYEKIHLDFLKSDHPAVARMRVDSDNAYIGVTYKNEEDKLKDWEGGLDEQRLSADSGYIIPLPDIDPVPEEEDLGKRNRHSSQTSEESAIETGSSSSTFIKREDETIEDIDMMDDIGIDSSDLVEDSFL
T2 sequence (P09619 33-1106): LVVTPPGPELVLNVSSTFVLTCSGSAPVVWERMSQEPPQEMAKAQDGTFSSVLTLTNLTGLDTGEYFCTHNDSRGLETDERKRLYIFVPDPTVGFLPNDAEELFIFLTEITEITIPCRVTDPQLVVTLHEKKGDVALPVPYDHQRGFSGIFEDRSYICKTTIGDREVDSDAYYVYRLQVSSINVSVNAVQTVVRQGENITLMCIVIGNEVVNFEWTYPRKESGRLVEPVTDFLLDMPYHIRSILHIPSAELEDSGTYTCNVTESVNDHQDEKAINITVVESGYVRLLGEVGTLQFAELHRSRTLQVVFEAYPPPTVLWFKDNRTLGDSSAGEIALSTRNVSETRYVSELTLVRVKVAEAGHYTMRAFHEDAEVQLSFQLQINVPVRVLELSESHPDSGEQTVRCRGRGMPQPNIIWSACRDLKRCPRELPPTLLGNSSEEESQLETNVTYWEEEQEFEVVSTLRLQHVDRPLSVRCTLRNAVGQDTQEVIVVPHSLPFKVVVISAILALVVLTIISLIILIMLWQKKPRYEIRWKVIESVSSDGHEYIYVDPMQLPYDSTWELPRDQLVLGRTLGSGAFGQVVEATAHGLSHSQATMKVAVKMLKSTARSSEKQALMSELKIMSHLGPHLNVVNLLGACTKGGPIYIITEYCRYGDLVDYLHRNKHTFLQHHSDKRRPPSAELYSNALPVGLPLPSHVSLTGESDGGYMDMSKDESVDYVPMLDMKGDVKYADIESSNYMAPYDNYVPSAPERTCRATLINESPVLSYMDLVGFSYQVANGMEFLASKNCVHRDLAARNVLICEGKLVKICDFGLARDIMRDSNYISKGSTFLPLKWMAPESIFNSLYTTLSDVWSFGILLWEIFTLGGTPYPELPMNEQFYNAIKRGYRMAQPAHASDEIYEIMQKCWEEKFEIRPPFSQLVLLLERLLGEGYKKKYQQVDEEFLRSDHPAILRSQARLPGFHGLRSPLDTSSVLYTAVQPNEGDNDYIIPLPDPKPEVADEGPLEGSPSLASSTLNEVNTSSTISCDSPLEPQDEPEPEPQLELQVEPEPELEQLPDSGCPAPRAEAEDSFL
T5 sequence (P17948 27-758): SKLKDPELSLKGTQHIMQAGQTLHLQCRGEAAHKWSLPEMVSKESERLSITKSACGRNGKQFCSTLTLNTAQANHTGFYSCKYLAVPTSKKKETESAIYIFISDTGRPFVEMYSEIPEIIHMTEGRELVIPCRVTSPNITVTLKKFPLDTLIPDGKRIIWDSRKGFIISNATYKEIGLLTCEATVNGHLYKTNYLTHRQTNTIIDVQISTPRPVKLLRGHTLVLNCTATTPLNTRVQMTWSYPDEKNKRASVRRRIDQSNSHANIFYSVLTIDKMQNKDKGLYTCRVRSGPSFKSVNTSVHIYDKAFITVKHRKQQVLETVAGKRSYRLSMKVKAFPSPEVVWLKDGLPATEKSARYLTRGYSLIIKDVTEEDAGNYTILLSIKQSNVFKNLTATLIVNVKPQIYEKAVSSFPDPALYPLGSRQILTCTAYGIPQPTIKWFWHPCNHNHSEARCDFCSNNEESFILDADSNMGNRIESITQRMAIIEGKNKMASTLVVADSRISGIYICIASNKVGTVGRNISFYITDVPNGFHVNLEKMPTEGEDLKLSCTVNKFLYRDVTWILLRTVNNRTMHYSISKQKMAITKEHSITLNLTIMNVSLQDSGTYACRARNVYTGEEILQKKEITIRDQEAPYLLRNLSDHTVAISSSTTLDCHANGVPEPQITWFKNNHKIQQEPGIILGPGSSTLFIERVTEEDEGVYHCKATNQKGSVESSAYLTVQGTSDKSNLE
T3 sequence (P35968 20-764): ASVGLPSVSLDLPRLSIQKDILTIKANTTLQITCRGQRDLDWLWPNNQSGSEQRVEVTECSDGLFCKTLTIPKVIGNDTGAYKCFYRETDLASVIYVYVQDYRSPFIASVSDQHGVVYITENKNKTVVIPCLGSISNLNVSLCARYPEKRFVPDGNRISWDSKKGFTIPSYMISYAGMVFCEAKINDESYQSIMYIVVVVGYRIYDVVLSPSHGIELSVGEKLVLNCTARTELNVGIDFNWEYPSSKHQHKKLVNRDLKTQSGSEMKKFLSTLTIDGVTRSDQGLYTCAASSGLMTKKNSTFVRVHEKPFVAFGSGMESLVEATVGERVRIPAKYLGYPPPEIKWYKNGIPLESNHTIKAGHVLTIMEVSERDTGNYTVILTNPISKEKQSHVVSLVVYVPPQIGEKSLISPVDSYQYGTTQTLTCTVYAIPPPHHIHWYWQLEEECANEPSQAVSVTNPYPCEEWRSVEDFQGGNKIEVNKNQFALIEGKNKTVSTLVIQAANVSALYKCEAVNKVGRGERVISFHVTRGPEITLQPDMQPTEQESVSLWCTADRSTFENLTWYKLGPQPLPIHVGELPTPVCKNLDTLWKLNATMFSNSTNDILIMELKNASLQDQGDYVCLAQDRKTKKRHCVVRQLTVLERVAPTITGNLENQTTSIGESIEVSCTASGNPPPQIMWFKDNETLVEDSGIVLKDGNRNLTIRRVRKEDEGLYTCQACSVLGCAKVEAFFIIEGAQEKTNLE

B1: human PDGF-BB homodimer (ligand, UniProt P01127 82-190, looked up)
chain: SLGSLTIAEPAMIAECKTRTEVFEISRRLIDRTNANFLVWPPCVEVQRCSGCCNNRNVQCRPTQVQLRPVQVRKIEIVRKKPIFKKATVTLEDHLACKCETVAAARPVT
modifications: 125I label on the tracer form
notes: also called labeled PDGF-BB
On to B1, for which the binding result in assay [1] is listed as “binds”.

B2: truncated human PDGF-CC homodimer, PDGF/VEGF homology domain only (core domain, residues 230-345; recombinant, baculovirus-infected Sf9 cells, C-terminal … (ligand, not shown: small tags and cut ends)
chain: GRKSRVVDLNLLTEEVRLYSCTPRNFSVSIREELKRTDTIFWPGCLLVKRCGGNCACCLHNCNECQCVPSKVTKKYHEVLQLRPKTGVRGLHKSLTDVALEHHEECDCVCRGSTGG
notes: Secreted disulfide-bonded dimer (36 kDa non-reduced, 24 kDa monomer); also called cPDGF-CC; truncated PDGF-C
Regarding B2, the binding result is “binds” in assay [2] and “no binding” in the assay with human PDGF beta-receptor.

B3: truncated human PDGF-C expressed in 293 cells from a mammalian expression plasmid (35S-labelled conditioned medium) (ligand)
chain: GRKSRVVDLNLLTEEVRLYSCTPRNFSVSIREELKRTDTIFWPGCLLVKRCGGNCACCLHNCNECQCVPSKVTKKYHEVLQLRPKTGVRGLHKSLTDVALEHHEECDCVCRGSTGG
notes: also called truncated PDGF-C; radiolabeled PDGF-C
For B3, the binding result with VEGFR-2-Ig, in the assay with VEGFR-3-Ig and with VEGFR-1-Ig was “no binding” each time.

(Values after patent publication US20040053837A1 (LUDWIG INSTITUTE FOR CANCER RESEARCH, published 2004).)
